Values quoted from earlier work, collected in article PMC10990137.
pKd: −log10 of the molar value.

Biological target: IGF2R domain 11 (Homo sapiens) (UniProt P11717)
Conditions: cited from earlier work

Sequence of IGF2 (P01344 25-91): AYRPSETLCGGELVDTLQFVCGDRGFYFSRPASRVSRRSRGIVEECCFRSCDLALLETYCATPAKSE
Sequence of IGF2R domain 11 (Homo sapiens) (P11717 1508-1650): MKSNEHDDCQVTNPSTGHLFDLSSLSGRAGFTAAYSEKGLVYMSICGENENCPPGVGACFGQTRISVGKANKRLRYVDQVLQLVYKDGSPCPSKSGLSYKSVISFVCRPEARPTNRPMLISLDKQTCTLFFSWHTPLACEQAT

IGF2 (from UniProt P01344)
pKd: 8.35
